For 1 substance, ROS production after PMA in neutrophils incubated with Sap6 1200 ng/ml with CD11b blocked by an antibody, relative to PMA-stimulated control neutrophils (50% without the blockade) results are on record in article PMC11865311.

The target of this assay is CD11b (alpha subunit of the Mac-1 receptor, CD11b/CD18) (human (endogenous in neutrophils)) (UniProt P11215).

In the case of “Candida albicans secreted aspartyl protease 6 (Sap6) (from UniProt Q5AC08 19-418) (enzyme)”, the ROS production after PMA in neutrophils incubated with Sap6 1200 ng/ml with CD11b blocked by an antibody, relative to PMA-stimulated control neutrophils (50% without the blockade) amounted to 85%.
